Data: US20200010567A1 (NEURIMMUNE, published 2020)

T1: (GP)15: H-C(GP)15-OH
T1 construct: synthetic, not coupled to BSA; also called poly-GP DPR protein peptide
T1 peptide: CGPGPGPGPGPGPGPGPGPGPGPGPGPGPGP

T2: (GR)15: H-C(GR)15-OH
T2 construct: synthetic, not coupled to BSA; also called poly-GR DPR protein peptide
T2 peptide: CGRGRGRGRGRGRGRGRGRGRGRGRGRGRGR

T3: (PR)15: H-C(PR)15-OH
T3 construct: synthetic, not coupled to BSA; also called poly-PR DPR protein peptide
T3 peptide: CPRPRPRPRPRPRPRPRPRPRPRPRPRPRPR

T4: (PA)15: H-C(PA)15-OH
T4 construct: synthetic, not coupled to BSA; also called poly-PA DPR protein peptide
T4 peptide: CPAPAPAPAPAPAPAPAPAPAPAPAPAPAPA


Experiments:
[1] = target: T1, (GP)15: H-C(GP)15-OH; assay: indirect ELISA, coated peptide
Experimental: (§1) In brief, dipeptide repeat proteins were synthesized and purified by Schafer-N(Copenhagen, Denmark): (GA)₁₅: H-CHHHHHH(GA)₁₅-OH; (GP)₁₅: H-C(GP)₁₅-OH; (GR)₁₅: H-C(GR)₁₅-OH; (PA)₁₅: H-C(PA)₁₅-OH; (PR)₁₅: H—C(PR)₁₅-OH. 96-well microplates (Corning Incorporated, Corning, USA) were coated with dipeptide repeat protein peptides at a concentration of either 5 μg/ml or 20 μg/ml in coating buffer (15 mM Na₂CO₃, 35 mM NaHCO₃, pH 9.42). Non-specific binding sites were blocked for 1 h at room temperature with PBS/0.1% Tween®-20 containing 2% BSA (Sigma-Aldrich, Buchs, Switzerland). Primary antibodies were diluted to the indicated concentrations and incubated for 1 h at room temperature, followed by incubation with a donkey anti-human IgG Fcγ-specific antibody conjugated with HRP (Jackson ImmunoResearch Laboratories, Inc., West Grove, USA). Binding was determined by measurement of HRP activity in a standard colorimetric assay. EC₅₀ values were estimated by non-linear regression using GraphPad Prism software (San Diego, USA). The binding specificity and EC₅₀ of human-derived antibodies for C9orf72 dipeptide repeat protein peptides (GA)₁₅, (GP)₁₅, (GR)₁₅, (PA)₁₅ and (PR)₁₅ were determined by indirect ELISA.

[2] = target: T2, (GR)15: H-C(GR)15-OH; assay: indirect ELISA, coated peptide
Experimental: as §1

[3] = target: T3, (PR)15: H-C(PR)15-OH; assay: indirect ELISA, coated peptide
Experimental: as §1

[4] = target: T4, (PA)15: H-C(PA)15-OH; assay: indirect ELISA, coated peptide
Experimental: as §1

[5] = target: Tau (UniProt P10636-8 1-441, limits assumed); assay: indirect ELISA, coated protein
Experimental: (§2) 96-well microplates (Corning) were coated with different target proteins at a concentration of 1-10 μg/ml in coating buffer (15 mM Na₂CO₃, 35 mM NaHCO₃, pH 9.42). Non-specific binding sites were blocked for 1 h at RT with PBS/0.1% Tween®-20 containing 2% BSA (Sigma-Aldrich, Buchs, Switzerland). […] Binding was determined using donkey anti-human IgG Fcγ-specific antibody conjugated with HRP (Jackson ImmunoResearch Laboratories, Inc., West Grove, USA) followed by measurement of HRP activity in a standard colorimetric assay. Signals for target protein were calculated in fold increase above median.

[6] = target: T5, transactive response DNA binding protein 43 (UniProt Q13148 1-414, limits assumed); assay: indirect ELISA, coated protein
T5 construct: also called TDP-43
Experimental: as §2

[7] = target: transthyrethin (UniProt P02766 21-147); assay: indirect ELISA, coated protein
Experimental: as §2

[8] = target: T6, full-length amyloid precursor protein (UniProt P05067 18-770, limits assumed); assay: indirect ELISA, coated protein
T6 construct: also called flAPP
Experimental: as §2

Sequence of Tau (P10636 other isoform, or with tags, fused parts or gaps limits assumed): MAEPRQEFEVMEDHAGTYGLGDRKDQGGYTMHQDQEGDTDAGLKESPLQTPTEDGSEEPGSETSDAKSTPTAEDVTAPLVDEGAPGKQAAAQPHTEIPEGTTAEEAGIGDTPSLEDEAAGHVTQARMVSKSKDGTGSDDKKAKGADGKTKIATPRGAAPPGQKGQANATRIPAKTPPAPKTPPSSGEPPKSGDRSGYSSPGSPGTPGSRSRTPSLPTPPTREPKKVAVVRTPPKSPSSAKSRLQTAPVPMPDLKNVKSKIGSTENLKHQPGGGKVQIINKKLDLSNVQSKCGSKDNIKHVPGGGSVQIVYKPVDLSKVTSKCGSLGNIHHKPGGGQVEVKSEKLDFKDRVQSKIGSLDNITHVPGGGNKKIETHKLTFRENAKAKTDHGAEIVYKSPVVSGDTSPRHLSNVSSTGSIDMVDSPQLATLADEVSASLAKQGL
T5 sequence (Q13148 whole entry): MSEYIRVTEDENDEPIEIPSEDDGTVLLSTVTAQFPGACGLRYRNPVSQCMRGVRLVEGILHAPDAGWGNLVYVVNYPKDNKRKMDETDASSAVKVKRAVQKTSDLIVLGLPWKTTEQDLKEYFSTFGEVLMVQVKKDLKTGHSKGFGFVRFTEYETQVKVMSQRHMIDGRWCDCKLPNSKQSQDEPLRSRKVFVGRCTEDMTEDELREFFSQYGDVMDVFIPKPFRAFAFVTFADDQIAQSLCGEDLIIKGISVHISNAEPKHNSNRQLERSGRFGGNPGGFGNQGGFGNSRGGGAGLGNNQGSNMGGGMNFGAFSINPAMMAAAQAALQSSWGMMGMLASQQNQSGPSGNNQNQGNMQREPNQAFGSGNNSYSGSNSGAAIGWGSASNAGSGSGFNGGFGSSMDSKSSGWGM
T6 sequence (P05067 18-770 limits assumed): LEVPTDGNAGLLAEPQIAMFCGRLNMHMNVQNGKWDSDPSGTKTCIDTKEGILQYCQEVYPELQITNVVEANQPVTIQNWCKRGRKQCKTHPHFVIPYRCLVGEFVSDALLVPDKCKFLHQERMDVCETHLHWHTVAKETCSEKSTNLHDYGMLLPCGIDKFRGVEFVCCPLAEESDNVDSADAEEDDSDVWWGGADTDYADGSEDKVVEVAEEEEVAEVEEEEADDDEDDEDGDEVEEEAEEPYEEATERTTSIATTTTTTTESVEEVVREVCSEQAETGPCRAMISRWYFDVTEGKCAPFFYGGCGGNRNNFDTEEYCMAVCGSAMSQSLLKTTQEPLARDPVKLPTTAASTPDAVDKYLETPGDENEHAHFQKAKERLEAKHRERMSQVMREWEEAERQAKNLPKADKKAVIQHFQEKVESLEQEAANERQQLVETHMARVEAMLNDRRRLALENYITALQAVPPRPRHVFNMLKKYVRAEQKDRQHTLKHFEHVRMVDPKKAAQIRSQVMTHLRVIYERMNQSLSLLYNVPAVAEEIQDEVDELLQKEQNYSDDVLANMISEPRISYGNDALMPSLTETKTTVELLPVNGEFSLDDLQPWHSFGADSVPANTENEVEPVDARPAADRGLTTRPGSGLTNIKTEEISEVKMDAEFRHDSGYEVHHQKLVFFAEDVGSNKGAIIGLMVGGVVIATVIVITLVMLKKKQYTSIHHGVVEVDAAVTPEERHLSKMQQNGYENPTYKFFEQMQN

Binder | binding result [1] | binding result [2] | binding result [3] | binding result [4] | binding result [5] | binding result [6] | binding result [7] | binding result [8]
NI-308.4M1 (antibody, V domains shown, Recombinant complete human IgG1, kappa) VH: EVQLVETGGGVVQPGGSLRLSCEASGFTIGTYAMHWVRQFPGKGLDWVAVISFDGTTEYYTDAVKGRFTISRDNAKNTLYLQMNYLRGDDTAIYFCARDFTSSGETGSWTQVPDLWGQGTLVTVSS VL: CEIVMTQSPATLSLSPGERATLSCRASQSVTKYLAWYQQKPGQAPRLLIYDVSYRAAGTPARFSGSGSGTDFTLTISSLEPEDFAVYYCHQRSSWPPVTFGGGTKVEIK | no binding | no binding | no binding |  |  |  |  | 
NI-308.24E11 (antibody, V domains shown, Recombinant complete human IgG1, kappa) VH: QVQLQESGPGLVKPSETLSLTCTVSTTSLRSYFWSWIRQPPGKGLEWIGYVYYSGSTIYNPSLKNRVTISIDTSKNQFSLNLRSVTAADTAMYFCARGVPAETDARDFPPYYFDHWGQGTLVTVSS VL: CDIQLTQSPSSLSASVGNRITFTCQASQDIRYYLNWYQQKPGKAPKLLIYDVSNLDTGVPPRFSGSGSGTNFTFTISSLQPEDIAVYYCQQYEGLPVTFGGGTKVEIK | no binding | no binding |  | no binding | no binding (tested: 20 nM) | no binding (tested: 20 nM) | no binding (tested: 20 nM) | no binding (tested: 20 nM)
NI-308.46E9 (antibody, V domains shown, Recombinant complete human IgG1, kappa) VH: QVQLQESGPGLVKPSETLSLTCTVSGASISGSTYYWGWIRQPPGKGLEYIGRIYYSGSTYYNPSLKSRATISVDTSKNQLSLTLSSVTAADTAVYYCVRPFYAGSGNSPFDYWGQGTLVTVSS VL: CEIVLTQSPATVSVSPGERATLSCRASQSVSTNLAWYQQKPGQPPRLLIYGASTRATGIPARFSGSGSGAEFTLTISSLQSEDFVVYYCQQYNNWPPAFGGGTKVEIK |  | no binding | no binding | no binding |  |  |  | 
